Measurements taken from patent US7871610B2, “Antibodies to Tie1 ectodomain” (Dyax Corp., priority 2003, dated 2011).

Test system: Tie-1
Assay: Immunohistochemistry of mouse SW480 xenograft tumor sections
Conditions: biotinylated E3 IgG1 10 μg/ml, paraffin sections
Description: We determined if antibody E3 binds to mouse endothelial cells in mouse xenographs. Immunohistochemistry was performed with biotinylated E3 IgG1 (a,z allotype) antibody and control antibodies anti-CD31 (endothelial cell specific marker) and anti-PCNA (proliferating cell nuclear antigen). Formalin-fixed tumor tissues from a mouse-xenograph containing SW480 cells (ATCC) were tested for the binding pattern of the human anti-Tie1 antibody E3. 5 μm sections of paraffin embedded tissues were deparaffinized, rehydrated and pretreated with warm the citrate buffer (0.01 M sodium citrate, pH6 at 95° C.) for 45 min. The slides were cooled down in fresh citrate buffer for 20 min and rinsed with distilled water. The slides were hydrogen peroxide treated, (0.3% H2O2 in PBS), and preincubated with PBS, 5% FCS, 5% heat inactivated human serum (HS) for 1 hour. Between antibody incubations slides were washed 3 times 5 minutes in PBS. Biotinylated antibodies E3 and A2-SV were diluted to a concentration of 10 μg/ml in PBS, 10% HS and incubated for 1 hour at RT. Slides were then incubated with an avidin-HRP (Dako) for 30 minutes at room temperature. Staining was detected by AEC (Vector Laboratories, Burlingame) and H2O2. The peroxidase reaction was stopped with water and slides were counter-stained with haematoxylin. The tissues were evaluated for their binding reactivity.

B1: E3: human anti-Tie1 antibody from Fab phage library; HC SEQ ID NO:114, LC SEQ ID NO:116 (antibody, V domains shown)
VH: EVQLLESGGGLVQPGGSLRLSCAASGFTFSMYGMVWVRQAPGKGLEWVSVISPSGGNTGYADSVKGRFTISRDNSKNTLYLQVNSLRAEDTAVYYCARAPRGYSYGYYYWGQGTLVTVSSASTKGPSVFPLAPSSKSTSGG
VL: DIQMTQSPLSLSASVGDRVTITCRASQGIGHYLAWYQQKPGKVPKLLIYTASTLQSGVPSRFSGSGSGTDFTLTINSLQPEDVATYYCQQFNSYPHTFGQGTRLDIK
modifications: Synthetically generated peptide
staining pattern in mouse xenograft tumor tissue: consistent with staining of mouse endothelial cell Tie-1
